Biological target: GST fusion protein of the cytoplasmic region of DSC2a A897fsX900 (aa 716–899) (human) (UniProt Q02487)
Assay: pull-down

Sequence of UniProt Q02487 (Q02487 716-899): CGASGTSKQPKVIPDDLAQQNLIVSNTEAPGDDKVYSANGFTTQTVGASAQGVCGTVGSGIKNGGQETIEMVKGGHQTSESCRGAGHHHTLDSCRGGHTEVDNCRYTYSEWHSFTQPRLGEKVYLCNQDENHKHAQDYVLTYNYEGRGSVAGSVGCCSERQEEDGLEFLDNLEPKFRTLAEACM

reduction of binding against DSC2a WT (densitometry): 50%
B1: plakoglobin (PG), endogenous in adult rat heart lysate (natural protein)
chain: MEVMNLIEQPIKVTEWQQTYTYDSGIHSGVNTCVPSVSSKGLLDEDDTCGRQYTLKKTTTYTQGVPQSQGDLEYQMSTTARAKRVREAMCPGVSGEDSSLLLATQVEGQTTNLQRLAEPSQLLKSAIVHLINYQDDAELATRALPELTKLLNDEDPVVVTKAAMIVNQLSKKEASRRALMGSPQLVAAVVRTMQNTSDLDTARCTTSILHNLSHHREGLLAIFKSGGIPALVRMLSSPVESVLFYAITTLHNLLLYQEGAKMAVRLADGLQKMVPLLNKNNPKFLAITTDCLQLLAYGNQESKLIILANGGPQGLVQIMRNYSYEKLLWTTSRVLKVLSVCPSNKPAIVEAGGMQALGKHLTSNSPRLVQNCLWTLRNLSDVATKQEGLENVLKILVNQLSVDDVNVLTCATGTLSNLTCNNSKNKTLVTQNSGVEALIHAILRAGDKDDITEPAVCALRHLTSRHPEAEMAQNSVRLNYGIPAIVKLLNQPNQWPLVKATIGLIRNLALCPANHAPLQEAAVIPRLVQLLVKAHQDAQRHVAAGTQQPYTDGVRMEEIVEGCTGALHILARDPMNRMEIFRLNTIPLFVQLLYSSVENIQRVAAGVLCELAQDKEAADAIDAEGASAPLMELLHSRNEGTATYAAAVLFRISEDKNPDYRKRVSVELTNSLFKHDPAAWEAAQSMIPINEPYADDMDATYRPMYSSDVPLDPLDMHMDMDGDYPMDTYSDGLRPPYPAADHMLA

— article PMC3058729
